Patent publication EP4470554A1, “USE OF KALLIKREIN I OR DERIVATIVE THEREOF IN TREATMENT OF VCI, PSCI OR CSVD” (Zonhon Biopharma Institute, Inc., priority 2022, dated 2023)

Target: T1, LMWK (Homo sapiens, UniProt P01042)
T1 sequence (P01042 19-427 isoform P01042-2 limits assumed): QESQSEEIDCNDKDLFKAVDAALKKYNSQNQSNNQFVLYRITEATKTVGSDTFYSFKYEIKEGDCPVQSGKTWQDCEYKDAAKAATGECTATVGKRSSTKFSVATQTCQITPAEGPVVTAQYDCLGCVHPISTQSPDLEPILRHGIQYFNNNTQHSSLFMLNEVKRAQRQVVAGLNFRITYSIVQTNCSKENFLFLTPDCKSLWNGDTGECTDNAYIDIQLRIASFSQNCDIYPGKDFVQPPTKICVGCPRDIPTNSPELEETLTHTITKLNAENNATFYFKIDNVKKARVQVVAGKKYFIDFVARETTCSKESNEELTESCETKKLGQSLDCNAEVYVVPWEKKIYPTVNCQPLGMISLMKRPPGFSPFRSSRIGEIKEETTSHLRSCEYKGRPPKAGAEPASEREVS
Assay: In vitro activity evaluation based on natural substrates (enzymatic reaction with LMWK, bradykinin quantified by UPLC)
Assay type: biochemical
Conditions: 37°C, 15min
Description: This example compared the enzymatic reaction to produce the effector molecule bradykinin at different ratios of substrate (LMWK) to enzyme (KLK1 or its PEG modified KLK1). The produced effector molecules were separated by reverse phase chromatography, the peak area of the product is calculated, and the curve of bradykinin production with different ratios of substrate to enzyme was drawn. Compare the amount of effector molecules produced by different test samples under the same reaction methods. Through this in vitro method simulating the in vivo effect, the in vivo effects of different tested samples were indirectly compared.
Kb was KLK1 extracted from porcine pancreas. PEG-Kb was PEG10K-modified Kb. PEG10K-hKLK1X1 and PEG-Kb can be prepared according to the conventional method of polyethylene glycol modified drugs.
The samples were mixed according to the following table (in PEG modified samples, the molar mass of the modified active substance was converted). The mixed samples were placed in a 37°C thermostat, incubated for 15min, accurately timed, and the reaction was terminated by adding 50% acetic acid solution according to the volume ratio of 10:1.
After the termination of the reaction, the sample was placed in a desktop centrifuge, centrifuged at 12000rpm for 5min, and the supernatant was taken. Detect with Waters ACQUITY UPLC H-Class, the mobile phase A was 0.1% TFA-H2O, the mobile phase B was 0.1% TFA-ACN, the detection wavelength was 214nm, the column temperature was 30°C, the sample loading volume was 10µl, the flow rate was 0.2ml/min, the running time was 35min, and the running gradient was as follows: Table 3
According to the UPLC chromatograph results of the enzymatic reaction mixture, the chromatographic peak with retention time of 13±0.5min(the peak position of bradykinin) was integrated and summed, and compared with the peak area of per unit mass bradykinin (1mg/ml, loading volume 10µl) to calculate the concentration of bradykinin generated by the enzymatic reaction. The amount of bradykinin produced was calculated according to the total reaction system in Table 2, and finally converted to the amount of bradykinin(µg/mg) produced per milligram of enzyme at each molar ratio.

- Bradykinin production (Molar ratio of substrate to enzyme 1: 1): 11.28 µg/mg (enzyme)
- Bradykinin production (Molar ratio of substrate to enzyme 5: 1): 44.63 µg/mg (enzyme)
- Bradykinin production (Molar ratio of substrate to enzyme 10: 1): 79.99 µg/mg (enzyme)
- Bradykinin production (Molar ratio of substrate to enzyme 15: 1): 103.85 µg/mg (enzyme)
- Bradykinin production (Molar ratio of substrate to enzyme 20: 1): 119.89 µg/mg (enzyme)
Substance: PEG-Kb: PEG10K-modified Kb [reference compound]
